Response (fold over LgBiT-TEAD1 alone) data for 1 variant are collected here from publication PMC6826516.

B1: LgBiT-TEAD1-Myc (TEAD1 aa 194-411), wild type [not stated] / SmBiT-TAZ-Flag (TAZ aa 13-119), wild type [not stated] (parent)
chain 1: PGQQVIHVTQDLDTDLEALFNSVMNPKPSSWRKKILPESFFKEPDSGSHSRQSSTDSSGGHPGPRLAGGAQHVRSHSSPASLQLGTGAGAAGSPAQQHAHLRQQSYD
chain 2: RSIGTTKLRLVEFSAFLEQQRDPDSYNKHLFVHIGHANHSYSDPLLESVDIRQIYDKFPEKKGGLKELFGKGPQNAFFLVKFWADLNCNIQDDAGAFYGVTSQYESSENMTVTCSTKVCSFGKQVVEKVETEYARFENGRFVYRINRSPMCEYMINFIHKLKHLPEKYMMNSVLENFTILLVVTNRDTQETLLCMACVFEVSNSEHGAQHHIYRLVKD

The test covers variants of B1. In words: NanoBiT assay (split-luciferase biosensor) in lysates of transfected HEK293T cells. The following applies: with SmBiT-TAZ-Flag (TAZ aa 13-119), 48 h after transfection, equal amounts of each biosensor plasmid, read off a plot.
With chain 2 E47A V49A I54A, the response (fold over LgBiT-TEAD1 alone) worked out at 37.
